From article PMC10435522, “Molecular insights into recognition of GUCY2C by T-cell engaging bispecific antibody anti-GUCY2CxCD3” (Scientific Reports, 2023)

T1: GUCY2C ECD peptide 19 (68-NSGDCRSSTCEGLDLLRKIS-87) (human)
T1 construct: human GUCY2C residues 68-87; numbers count on: the mature protein (91-110 of P25092); In the crystal the peptide holds the disulfide bond Cys72-Cys77; also called GUCY2C-peptide; 68GUCY2C-peptide87; source: synthetic peptide (New England Peptide arrays for the DELFIA; chemically synthesized for the crystal)
T1 chain: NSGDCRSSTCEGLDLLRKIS

B1: GUCY2C-1608 (IgG version of PF-07062119) (antibody, V domains shown)
VH: EVQLVESGGGLVQPGGSLRLSCAASGFTFSSYWMHWVRQAPGKGLEWIGEIKPSNELTNVHEKFKDRFTISVDKAKNSAYLQMNSLRAEDTAVYYCTRTITTTEGYWFFDVWGQGTLVTVSS
VL: DIQLTQSPSSLSASVGDRVTITCRASESVDYYGSSLLQWYQQKPGKAPKLLIYAASKLASGVPSRFSGSGSGTDFTLTISSLQPEDFATYYCQQTRKAYTFGQGTKLEIK
notes: as the VH in aGUCY2C-scFv; as the VL in aGUCY2C-scFv; IgG detected with an anti-human IgG secondary antibody; also called GUGY2C-1608; Ab GUCY2C-1608
B2: anti-GUCY2C single chain Fv (aGUCY2C-scFv) fragment of PF-07062119 (scFv, V domains shown)
VH: EVQLVESGGGLVQPGGSLRLSCAASGFTFSSYWMHWVRQAPGKGLEWIGEIKPSNELTNVHEKFKDRFTISVDKAKNSAYLQMNSLRAEDTAVYYCTRTITTTEGYWFFDVWGQGTLVTVSS
VL: DIQLTQSPSSLSASVGDRVTITCRASESVDYYGSSLLQWYQQKPGKAPKLLIYAASKLASGVPSRFSGSGSGTDFTLTISSLQPEDFATYYCQQTRKAYTFGQGTKLEIK
notes: Fc removed with AcTEV protease; also called anti-GUCY2C-scFv; source: Expi293F, transfected (with kifunensine), purified (MAb Select Sure, Superdex 200 SEC, TEV cleavage); not shown: Fc, C-terminal, cleaved

Each molecule was assayed against PF-07062119, anti-GUCY2CxCD3 bispecific antibody (assay: flow cytometry of yeast-displayed GUCY2C ECD). Settings: 2 independent experiments, triplicate samples; parent: est. 36; read off a plot.

Compared with “human GUCY2C ECD displayed on yeast (CID1814) (from UniProt P25092) D81E”, “human GUCY2C ECD displayed on yeast (CID1814) (from UniProt P25092) I66L” is higher in response: 33 for the first, 34 for the second.

Compared with “human GUCY2C ECD displayed on yeast (CID1814) (from UniProt P25092) K85Q”, “human GUCY2C ECD displayed on yeast (CID1814) (from UniProt P25092) L83I” is lower in response: 50 for the first, 28 for the second.

Going from “human GUCY2C ECD displayed on yeast (CID1814) (from UniProt P25092) R84K” to “human GUCY2C ECD displayed on yeast (CID1814) (from UniProt P25092) S15N”, the response falls from 48 to 21.

First: human GUCY2C ECD displayed on yeast (CID1814) (from UniProt P25092) S62F
Second: human GUCY2C ECD displayed on yeast (CID1814) (from UniProt P25092) S74T
The response of the first is lower: 30 for the first, 41 for the second.

Molecule “human GUCY2C ECD displayed on yeast (CID1814) (from UniProt P25092) S87F” has a response of 32.

Same assay, conditions: 2 independent experiments, triplicate samples; parent: est. 130; read off a plot

Going from “human GUCY2C ECD displayed on yeast (CID1814) (from UniProt P25092) A331E; L335I” to “human GUCY2C ECD displayed on yeast (CID1814) (from UniProt P25092) N21D; A23D; D71G”, the response falls from 110 to 43.

Going from “human GUCY2C ECD displayed on yeast (CID1814) (from UniProt P25092) Q210R; E230A; D238T; E259R” to “human GUCY2C ECD displayed on yeast (CID1814) (from UniProt P25092) S163T; G403S”, the response falls from 220 to 96.

Compared with “human GUCY2C ECD displayed on yeast (CID1814) (from UniProt P25092) Y109V; T133N”, “human GUCY2C ECD displayed on yeast (CID1814) (from UniProt P25092) human 153-166 substituted with chicken residues 151-164” is lower in response: 97 for the first, 37 for the second.

First: human GUCY2C ECD displayed on yeast (CID1814) (from UniProt P25092) human 172-178 substituted with chicken residues 170-176
Second: human GUCY2C ECD displayed on yeast (CID1814) (from UniProt P25092) human 198-206 substituted with chicken residues 196-204
The response of the first is lower: 140 for the first, 160 for the second.

Going from “human GUCY2C ECD displayed on yeast (CID1814) (from UniProt P25092) human 207-217 substituted with chicken residues 205-215” to “human GUCY2C ECD displayed on yeast (CID1814) (from UniProt P25092) human 238-243 substituted with chicken residues 236-241”, the response falls from 150 to 110.

Going from “human GUCY2C ECD displayed on yeast (CID1814) (from UniProt P25092) human 259-269 substituted with chicken residues 257-267” to “human GUCY2C ECD displayed on yeast (CID1814) (from UniProt P25092) human 363-376 substituted with chicken residues 361-374”, the response falls from 80 to 65.

Same assay, conditions: 2 independent experiments, triplicate samples; read off a plot

First: chicken GUCY2C ECD displayed on yeast (CID1818) (from UniProt E1BZE2) chicken residues 70-84 replaced by human 73-87
Second: chicken GUCY2C ECD displayed on yeast (CID1818) (from UniProt E1BZE2) chicken residues 71-89 replaced by human 74-92
The response of the first is lower: 11 for the first, 14 for the second.

Target: T1, GUCY2C ECD peptide 19 …
Experiment: ELISA; DELFIA competition ELISA; human GUCY2C ECD coated at 1 ug/ml; GUCY2C-1608 at EC80 mixed with peptide 19 serially diluted 1:3 from 10 ug/ml; anti-human IgG europium detection
Settings: both partners purified

B1: binds.

Each molecule was assayed against T2, human GUCY2C ECD, purified (from HuGUCY2C_ECD_TEV_muIgG2amutFc_Flag) (human, UniProt P25092) in the same assay as above. Settings: both partners purified.
T2 construct: human GUCY2C extracellular domain, residues 1-407; numbers count on: the mature protein (24-430 of P25092); For the crystal the complex with the scFv was treated with endoglycosidase H. The limits 1-407 are stated for the crystallised ECD; also called full GUCY2C ECD; full length GUCY2C-ECD; source: Expi293F, transfected (with kifunensine), purified (MAb Select Sure, Superdex 200 SEC, TEV …)
T2 sequence (P25092 24-407): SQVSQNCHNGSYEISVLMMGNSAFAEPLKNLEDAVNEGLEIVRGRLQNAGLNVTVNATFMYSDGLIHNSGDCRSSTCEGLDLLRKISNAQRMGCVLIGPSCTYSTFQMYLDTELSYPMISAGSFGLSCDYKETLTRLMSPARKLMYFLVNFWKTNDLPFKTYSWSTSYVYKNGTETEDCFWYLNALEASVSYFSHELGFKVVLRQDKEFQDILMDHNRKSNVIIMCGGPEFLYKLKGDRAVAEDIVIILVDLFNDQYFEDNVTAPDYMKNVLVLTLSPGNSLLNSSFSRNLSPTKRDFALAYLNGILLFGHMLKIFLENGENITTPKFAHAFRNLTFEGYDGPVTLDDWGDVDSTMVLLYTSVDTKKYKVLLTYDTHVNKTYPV

B1: binds.

Each molecule was assayed against T2, human GUCY2C ECD, purified (from …) (assay: crystal structure; aGUCY2C-scFv with GUCY2C-ECD (1-407), mixed at 1.2:1, treated with endoglycosidase H, purified by SEC; 3.52 A; one complex in the asymmetric unit). Settings: both partners purified.

B2: binds.

Target: T1, GUCY2C ECD peptide 19 …
Experiment: crystal structure; aGUCY2C-scFv with GUCY2C-peptide 68-87, complex formed at 1:1.2 molar ratio; 1.6 A; two complexes in the asymmetric unit
Settings: both partners purified

B2: binds.
